Source: patent publication US20240116985A1 (published 2024)
Starred links: 1 amine or outer side, 2 acyl side, 3 side chain; linkers in the order of their positions; H or OH if unused. Positions of bridges follow the written chain, without caps; N, C: chain ends. Non-standard residues stand in square brackets, D forms with d. Primed or numbered codes have the meaning given here. B5(15) = 2-amino-2-(pent-4-en-1-yl)hept-6-enoic acid (2,2-bis(4-pentenyl)glycine), stitching residue bearing two staples, C=CCCCC(CCCC=C)(N[*:1])C(=O)[*:2]; PyrS2″ = (S)-3-amino-1-((pent-4-en-1-yloxy)carbonyl)pyrrolidine-3-carboxylic acid (stapling residue), C=CCCCOC(=O)N1CC[C@@](N[*:1])(C(=O)[*:2])C1; B5(23) = 2-amino-2-(pent-4-en-1-yl)hept-6-enoic acid (2,2-bis(4-pentenyl)glycine), stitching residue, C=CCCCC(CCCC=C)(N[*:1])C(=O)[*:2]; TfeGA = (S)-2-amino-3-((carboxymethyl)(2,2,2-trifluoroethyl)amino)propanoic acid, O=C([C@H](CN(CC(=O)[*:3])CC(F)(F)F)N[*:1])[*:2]; B5(3) = 2,2-bis(4-pentenyl)glycine (stitching residue), C=CCCCC(CCCC=C)(N[*:1])C(=O)[*:2]; Phe(3-COOH) = N[C@@H](Cc1cccc(C(=O)O)c1)C(=O)O; Phe(2-Cl) = N[C@@H](Cc1ccccc1Cl)C(=O)O; Bta = N[C@@H](Cc1csc2ccccc12)C(=O)O; αAllylPro = C=CC[C@@]1(C(=O)O)CCCN1; tBuAla = CC(C)(C)C[C@H](N)C(=O)O; 3Thi = N[C@@H](Cc1ccsc1)C(=O)O; S8 = C=CCCCCCC[C@](C)(N)C(=O)O; PyrS2(4) = not defined here; hSer = N[C@@H](CCO)C(=O)O

T1: B-cat-Halo (beta-catenin HaloTag NanoBRET construct expressed in HEK293 cells) (UniProt P35222 1-781)
T1 sequence (looked up): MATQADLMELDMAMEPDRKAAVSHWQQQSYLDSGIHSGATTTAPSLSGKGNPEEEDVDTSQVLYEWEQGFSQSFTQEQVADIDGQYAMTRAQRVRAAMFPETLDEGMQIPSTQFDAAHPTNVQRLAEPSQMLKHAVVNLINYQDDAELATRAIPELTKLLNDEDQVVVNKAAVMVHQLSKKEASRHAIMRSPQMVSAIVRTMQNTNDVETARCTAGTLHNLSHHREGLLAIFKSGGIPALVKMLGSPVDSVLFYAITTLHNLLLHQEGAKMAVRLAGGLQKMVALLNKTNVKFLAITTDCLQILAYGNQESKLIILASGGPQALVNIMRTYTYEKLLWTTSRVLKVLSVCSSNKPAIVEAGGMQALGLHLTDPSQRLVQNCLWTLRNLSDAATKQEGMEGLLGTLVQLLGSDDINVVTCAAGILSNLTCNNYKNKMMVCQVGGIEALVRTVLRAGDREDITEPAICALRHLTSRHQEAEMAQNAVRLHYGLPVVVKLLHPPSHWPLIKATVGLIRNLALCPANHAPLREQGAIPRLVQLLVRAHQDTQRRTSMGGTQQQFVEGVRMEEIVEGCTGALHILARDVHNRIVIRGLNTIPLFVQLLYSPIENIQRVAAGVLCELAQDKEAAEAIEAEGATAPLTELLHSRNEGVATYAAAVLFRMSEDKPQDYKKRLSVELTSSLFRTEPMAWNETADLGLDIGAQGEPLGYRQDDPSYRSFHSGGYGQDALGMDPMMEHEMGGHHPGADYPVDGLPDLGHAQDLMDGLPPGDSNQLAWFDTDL

T2: full-length beta-Catenin (Uniprot ID P35222) (Homo sapiens (Human), UniProt P35222 2-781)
T2 construct: full-length; also called bCat; B-Catenin
T2 sequence: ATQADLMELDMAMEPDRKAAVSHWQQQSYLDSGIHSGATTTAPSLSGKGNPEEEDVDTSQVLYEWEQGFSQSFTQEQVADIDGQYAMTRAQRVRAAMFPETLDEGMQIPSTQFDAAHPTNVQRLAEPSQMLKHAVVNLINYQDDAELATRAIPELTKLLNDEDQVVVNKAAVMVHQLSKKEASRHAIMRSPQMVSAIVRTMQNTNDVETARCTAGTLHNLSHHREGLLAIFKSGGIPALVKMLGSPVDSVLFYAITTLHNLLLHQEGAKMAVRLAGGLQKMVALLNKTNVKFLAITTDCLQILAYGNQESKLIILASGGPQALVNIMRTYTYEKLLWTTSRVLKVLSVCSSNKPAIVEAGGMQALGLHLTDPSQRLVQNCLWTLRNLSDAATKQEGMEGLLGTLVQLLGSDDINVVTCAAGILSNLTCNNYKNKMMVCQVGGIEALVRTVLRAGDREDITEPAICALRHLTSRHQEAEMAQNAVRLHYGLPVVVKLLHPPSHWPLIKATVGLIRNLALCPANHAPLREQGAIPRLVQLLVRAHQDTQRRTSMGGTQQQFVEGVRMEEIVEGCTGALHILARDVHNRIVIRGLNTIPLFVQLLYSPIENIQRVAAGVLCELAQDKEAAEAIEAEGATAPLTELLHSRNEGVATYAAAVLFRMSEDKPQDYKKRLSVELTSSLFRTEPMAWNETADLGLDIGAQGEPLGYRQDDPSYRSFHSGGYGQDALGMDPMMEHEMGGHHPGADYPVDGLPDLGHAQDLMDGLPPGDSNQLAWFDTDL

T3: B-cat-Halo (Homo sapiens (Human), UniProt P35222 1-781)
T3 sequence: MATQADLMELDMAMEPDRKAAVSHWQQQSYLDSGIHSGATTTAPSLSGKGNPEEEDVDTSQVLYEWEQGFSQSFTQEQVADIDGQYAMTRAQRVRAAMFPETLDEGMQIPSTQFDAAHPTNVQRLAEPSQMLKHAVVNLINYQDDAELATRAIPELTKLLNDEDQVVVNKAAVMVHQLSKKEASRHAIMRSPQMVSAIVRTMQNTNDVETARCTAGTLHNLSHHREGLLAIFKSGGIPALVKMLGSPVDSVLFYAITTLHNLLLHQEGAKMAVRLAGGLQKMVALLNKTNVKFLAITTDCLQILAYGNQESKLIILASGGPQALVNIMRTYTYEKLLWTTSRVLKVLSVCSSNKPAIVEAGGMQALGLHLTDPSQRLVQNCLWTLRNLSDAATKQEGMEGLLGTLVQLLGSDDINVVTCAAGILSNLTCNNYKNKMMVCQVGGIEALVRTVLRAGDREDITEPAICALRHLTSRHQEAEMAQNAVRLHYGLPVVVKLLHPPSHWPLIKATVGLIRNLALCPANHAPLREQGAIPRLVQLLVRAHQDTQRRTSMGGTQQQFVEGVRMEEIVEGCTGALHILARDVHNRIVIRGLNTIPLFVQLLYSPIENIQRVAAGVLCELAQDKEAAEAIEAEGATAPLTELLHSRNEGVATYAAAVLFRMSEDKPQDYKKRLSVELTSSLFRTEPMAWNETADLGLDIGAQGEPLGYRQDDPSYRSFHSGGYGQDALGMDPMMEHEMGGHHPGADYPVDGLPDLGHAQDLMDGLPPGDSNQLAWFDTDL


Columns and labels:
[1] = target: T1, B-cat-Halo (beta-catenin HaloTag …); assay: cell-based or functional assay
[2] = target: T2, full-length beta-Catenin (Uniprot ID …); assay: fluorescence polarization competition; displaces 5FAM-TCF4(10-53) from full-length beta-catenin
Description: The plate was incubated protected from light for 60 minutes at 20° C. prior to read. Reads were performed on a CLARIOstar plate reader (BMG Labtech) in duplicate, and data were fitted to a 1:1 binding model with hill slope using an in-house script. All provided concentrations are final concentrations.

[3] = target: T3, B-cat-Halo; assay: cell-based or functional assay

| Binder | NanoBRET Abs IC50 [1] [µM] | IC50 [2] [µM] | NanoBRET Abs IC50 [3] [µM] |
| --- | --- | --- | --- |
| Ac-[αAllylPro]DN[B5(15)]DEAAF[hSer][S8]F[Bta]Q-NH2 (staple 1-4, 4-11; not fully specified; printed as Ac-PL3-Asp-Asn-B5-Asp-Glu-Ala-Ala-Phe-Hse-S8-Phe-BztA-Gln-NH2, Stapled peptide composition; later eluting HPLC peak (staple isomer); also called Ac-PL3-Asp-Asn-B5-Asp-Glu-Ala-Ala-Phe-Hse-S8-Phe-BztA-Gln-NH2) [I-1535] | > 20 | 0.072 | – |
| Ac-[αAllylPro]D[hSer][B5(15)]DEAAFL[S8]F[Bta]Q-NH2 (staple 1-4, 4-11, Stapled peptide composition; also called Ac-PL3-Asp-Hse-B5-Asp-Glu-Ala-Ala-Phe-Leu-S8-Phe-BztA-Gln-NH2) [I-1546] | 37.9 | 0.071 | – |
| XDQXDEAAFQXFXQ (not fully specified; N-terminal Ac; PL3 at 1, B5 at 4, S8 at 11 (staples PL3-B5 and B5-S8 by olefin metathesis); BztA at 13; C-terminal NH2, Stapled peptide composition; earlier eluting HPLC peak (staple isomer); also called Ac-PL3-Asp-Gln-B5-Asp-Glu-Ala-Ala-Phe-Gln-S8-Phe-BztA-Gln-NH2) [I-1539] | > 20 | 0.036 | – |
| Ac-[αAllylPro]D[hSer][B5(15)]DEAAF[hSer][S8]F[Bta]Q-NH2 (staple 1-4, 4-11; not fully specified; printed as Ac-PL3-Asp-Hse-B5-Asp-Glu-Ala-Ala-Phe-Hse-S8-Phe-BztA-Gln-NH2, Stapled peptide composition; Same description as I-1548; earlier eluting HPLC peak (staple isomer); also called Ac-PL3-Asp-Hse-B5-Asp-Glu-Ala-Ala-Phe-Hse-S8-Phe-BztA-Gln-NH2) [I-1547] | > 20 | 0.068 | – |
| Ac-[αAllylPro]DN[B5(15)]DEAAFL[S8]F[Bta]Q-NH2 (staple 1-4, 4-11, Stapled peptide composition; also called Ac-PL3-Asp-Asn-B5-Asp-Glu-Ala-Ala-Phe-Leu-S8-Phe-BztA-Gln-NH2) [I-1533] | > 20 | 0.076 | – |
| Ac-[αAllylPro]DF[B5(23)]DEAAFL[S8]F[Bta]Q-NH2 (staple 1-4, 4-11, Stapled peptide composition; also called Ac-PL3-Asp-Phe-B5-Asp-Glu-Ala-Ala-Phe-Leu-S8-Phe-BztA-Gln-NH2) [I-1550] | 15.3 | 0.022 | – |
| Ac-[αAllylPro]DQ[B5(15)]DEAAFL[S8]F[Bta]Q-NH2 (staple 1-4, 4-11, Stapled peptide composition; also called Ac-PL3-Asp-Gln-B5-Asp-Glu-Ala-Ala-Phe-Leu-S8-Phe-BztA-Gln-NH2) [I-1541] | 34.7 | 0.039 | – |
| Ac-[αAllylPro]D[tBuAla][B5(3)]D[Phe(3-COOH)]AAFS[PyrS2″][Phe(2-Cl)][Bta]N-NH2 (staple 1-4, 4-11) [I-2039] | – | – | 10.5 |
| Ac-[αAllylPro]D[tBuAla][B5(3)]D[Phe(3-COOH)]AAFF[PyrS2″][3Thi][Bta]N-NH2 (staple 1-4, 4-11) [I-2044] | – | – | 2.6 |
| Ac-[αAllylPro]D[tBuAla][B5(3)]D[Phe(3-COOH)]AAFA[PyrS2″][Phe(2-Cl)][Bta]N-NH2 (staple 1-4, 4-11) [I-2036] | – | – | 12.9 |
| Ac-[αAllylPro]D[tBuAla][B5(3)]D[Phe(3-COOH)]SAFL[PyrS2″][3Thi][Bta]A-NH2 (staple 1-4, 4-11) [I-2050] | – | – | 4.9 |
| Ac-[αAllylPro]D[tBuAla][B5(3)]D[Phe(3-COOH)]AAFL[PyrS2″][Phe(2-Cl)][Bta]NAAA-NH2 (staple 1-4, 4-11) [I-2040] | – | – | 2.8 |
| Ac-[αAllylPro]D[tBuAla][B5(3)]D[Phe(3-COOH)]AAFS[PyrS2(4)][Phe(2-Cl)][Bta]N-NH2 (staple 1-4, 4-11; not fully specified; reading uncertain; also: staple isomer, earlier eluting HPLC peak) [I-2038] | – | – | 11.8 |
| Ac-[αAllylPro]D[tBuAla][B5(3)]D[TfeGA]AAFL[PyrS2″][3Thi][Bta]Q-NH2 (staple 1-4, 4-11; not fully specified (residue 9)) [I-2048] | – | – | 28.8 |
